These results are taken from article PMC5626478, “LARP4 mRNA codon-tRNA match contributes to LARP4 activity for ribosomal protein mRNA poly(A) tail length protection”.

The target in the series is LARP4-NTD (1-286) (human, UniProt Q71RC2 1-286). Nature of the series: EMSA; EMSA as described in Yang et al. 2011; buffer, salt, pH and temperature not given; protein in uM. Conditions: protein: recombinant.
Sequence of LARP4-NTD (1-286) (Q71RC2 1-286): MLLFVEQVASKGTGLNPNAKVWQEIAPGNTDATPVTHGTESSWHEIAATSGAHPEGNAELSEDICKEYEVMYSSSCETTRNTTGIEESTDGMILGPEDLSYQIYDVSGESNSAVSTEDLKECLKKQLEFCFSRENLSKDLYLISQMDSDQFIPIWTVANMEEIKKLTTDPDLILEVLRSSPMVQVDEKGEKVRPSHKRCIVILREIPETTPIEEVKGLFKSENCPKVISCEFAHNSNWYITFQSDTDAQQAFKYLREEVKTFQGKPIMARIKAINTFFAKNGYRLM

B1: A15 3'-OH (ssRNA)
RNA: AAAAAAAAAAAAAAA
Take B1: the binding result is “binds”.
